In the experiment the target is TMHC2, designed transmembrane (TM) homodimer, monomeric construct with N-terminal SpyTag and SnoopTag (wild type). Put plainly: single-molecule magnetic tweezers.

Molecule TRTEIIRELERSL [peptide II (13-aa peptide …)] came in with an increase of partial TMHC2 dimerization up to the I1 state with peptide II of 41%, a percent of traces with only partial TMHC2 dimerization with 10 μM peptide of 62% and a probability of complete TMHC2 dimerization with 10 μM peptide of 38%.
